Molecular target: the molecule itself
Test: SDS-PAGE; samples in SDS buffer on a polyacrylamide gel; bands of the dissolved crystals identified by PMF MALDI-TOF; crystals heated at ~95°C for 5 min

B1: catalase HPII (endogenous, Escherichia coli) (enzyme, Escherichia coli (endogenous in E. coli), UniProt P21179 1-753, looked up)
chain: MSQHNEKNPHQHQSPLHDSSEAKPGMDSLAPEDGSHRPAAEPTPPGAQPTAPGSLKAPDTRNEKLNSLEDVRKGSENYALTTNQGVRIADDQNSLRAGSRGPTLLEDFILREKITHFDHERIPERIVHARGSAAHGYFQPYKSLSDITKADFLSDPNKITPVFVRFSTVQGGAGSADTVRDIRGFATKFYTEEGIFDLVGNNTPIFFIQDAHKFPDFVHAVKPEPHWAIPQGQSAHDTFWDYVSLQPETLHNVMWAMSDRGIPRSYRTMEGFGIHTFRLINAEGKATFVRFHWKPLAGKASLVWDEAQKLTGRDPDFHRRELWEAIEAGDFPEYELGFQLIPEEDEFKFDFDLLDPTKLIPEELVPVQRVGKMVLNRNPDNFFAENEQAAFHPGHIVPGLDFTNDPLLQGRLFSYTDTQISRLGGPNFHEIPINRPTCPYHNFQRDGMHRMGIDTNPANYEPNSINDNWPRETPPGPKRGGFESYQERVEGNKVRERSPSFGEYYSHPRLFWLSQTPFEQRHIVDGFSFELSKVVRPYIRERVVDQLAHIDLTLAQAVAKNLGIELTDDQLNITPPPDVNGLKKDPSLSLYAIPDGDVKGRVVAILLNDEVRSADLLAILKALKAKGVHAKLLYSRMGEVTADDGTVLPIAATFAGAPSLTVDAVIVPCGNIADIADNGDANYYLMEAYKHLKPIALAGDARKFKATIKIADQGEEGIVEADSADGSFMDELLTLMAAHRVWSRIPKIDKIPA
notes: catalase HPII of Escherichia coli, product of the katE gene, endogenous protein, printed molecular weight 84 kDa; residues 27-753 and one heme resolved in the map; Homotetramer, one heme per subunit; also called HPII tetramer; source: endogenous, E. coli overexpressing PomAB mutants
stoichiometry N: 2 subunits

From article PMC3819363, “Post-Transcriptional Regulator Hfq Binds Catalase HPII: Crystal Structure of the Complex” (PLoS ONE, 2013)
